The record followed here is patent US20190300610A1.

Assay in all cases: reported; reported KD
Assay [1] deals with mFcgRIII.
Assay [2] addresses mFcRn.
For assay [3], the target named is mFcgRIV.
The target of assay [4] is mFcgRIIb.

The Kd is the constant that tells how readily two partners part at equilibrium. hIgG1: the equilibrium dissociation constant (Kd) in assay [1] was 9300 nM; in assay [2], 72 nM; in assay [3], 280 nM; in assay [4], 1100 nM.
For the substance hIgG2, the Kd was determined as 9700 nM in assay [1], 63 nM in assay [2] and 7900 nM in assay [4].
As for hIgG3, the Kd turned out to be 1300 nM in assay [1], 230 nM in assay [2], 170 nM in assay [3] and 700 nM in assay [4].
As for hIgG4, the Kd is 21000 nM in assay [1], 116 nM in assay [2], 26000 nM in assay [3] and 11000 nM in assay [4].
For mIgG1, the values for the equilibrium dissociation constant (Kd) in assay [1], in assay [2] and in assay [4] were 3200 nM, 1160 nM and 301 nM, respectively.
For the substance mIgG2a, the equilibrium dissociation constant (Kd) was found to be 1460 nM in assay [1], 490 nM in assay [2], 34.5 nM in assay [3] and 2390 nM in assay [4].
As for mIgG2b, the Kd was found to be 1560 nM in assay [1], 545 nM in assay [2], 59 nM in assay [3] and 448 nM in assay [4].
With mIgG3, in assay [2], the dissociation constant (Kd) was found to be 140 nM.
